# Reference: IntAct's records for PubMed 29039417
# B1: BBSome complex member BBS4 (Homo sapiens), Q96RK4 (parent)
# chain: MAEERVATRTQFPVSTESQKPRQKKAPEFPILEKQNWLIHLHYIRKDYEACKAVIKEQLQETQGLCEYAIYVQALIFRLEGNIQESLELFQTCAVLSPQSADNLKQVARSLFLLGKHKAAIEVYNEAAKLNQKDWEISHNLGVCYIYLKQFNKAQDQLHNALNLNRHDLTYIMLGKIHLLEGDLDKAIEVYKKAVEFSPENTELLTTLGLLYLQLGIYQKAFEHLGNALTYDPTNYKAILAAGSMMQTHGDFDVALTKYRVVACAVPESPPLWNNIGMCFFGKKKYVAAISCLKRANYLAPFDWKILYNLGLVHLTMQQYASAFHFLSAAINFQPKMGELYMLLAVALTNLEDIENAKRAYAEAVHLDKCNPLVNLNYAVLLYNQGEKKNALAQYQEMEKKVSLLKDNSSLEFDSEMVEMAQKLGAALQVGEALVWTKPVKDPKSKHQTTSTSKPASFQQPLGSNQALGQAMSSAAAYRTLPSGAGGTSQFTKPPSLPLEPEPAVESSPTETSEQIREK
# partner: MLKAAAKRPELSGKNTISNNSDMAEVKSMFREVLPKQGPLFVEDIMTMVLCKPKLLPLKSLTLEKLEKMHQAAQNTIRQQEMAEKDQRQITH
# Variants of: B1
# Conditions: with bbip1_human BBIP1, A8MTZ0
row,Variant,effect of a mutation on the interaction
1,R517A,with no effect
2,R517K,with no effect
3,R517E,with no effect
4,I516E,with no effect
5,I516K,with no effect
6,I516A,with no effect
7,P509E,with no effect
8,P509A,with no effect
9,P509K,with no effect
10,P494A,with no effect
11,P494K,with no effect
12,P494E,with no effect
13,T492A,with no effect
14,T492E,with no effect
15,T492K,with no effect
16,L499A,with no effect
17,L499E,with no effect
18,L499K,with no effect
19,K519A,with no effect
20,K519E,with no effect
21,A504E,with no effect
22,A504K,with no effect
23,S507A,with no effect
24,S507E,with no effect
25,S507K,with no effect
26,V505K,with no effect

row,Variant,effect of a mutation on the interaction
1,V505A,with no effect
2,V505E,with no effect
3,E511A,with no effect
4,E511K,with no effect
5,P495E,with no effect
6,P495K,with no effect
7,P495A,with no effect
8,S513K,with no effect
9,S513A,with no effect
10,S513E,with no effect
11,T512A,with no effect
12,T512E,with no effect
13,T512K,with no effect
14,E506K,with no effect
15,E506A,with no effect
16,L497E,with no effect
17,L497A,with no effect
18,L497K,with no effect
19,E502A,with no effect
20,E502K,with no effect
21,P501E,with no effect
22,P501K,with no effect
23,P501A,with no effect
24,S496A,with no effect
25,S496K,with no effect
26,S496E,with no effect

row,Variant,effect of a mutation on the interaction
1,S508A,with no effect
2,S508K,with no effect
3,S508E,with no effect
4,Q515K,with no effect
5,Q515A,with no effect
6,Q515E,with no effect
7,F491E,with no effect
8,F491K,with no effect
9,T510K,with no effect
10,T510A,with no effect
11,T510E,with no effect
12,E518A,with no effect
13,E518K,with no effect
14,E514K,with no effect
15,E514A,with no effect
16,E500A,with no effect
17,E500K,with no effect
18,P498K,with no effect
19,P498A,with no effect
20,P498E,with no effect
21,K493A,with no effect
22,K493E,with no effect
23,P503A,with no effect
24,P503E,with no effect
25,P503K,with no effect
